From article PMC11068563, “The MCU and MCUb amino-terminal domains tightly interact: mechanisms for low conductance assembly of the mitochondrial calcium uniporter complex” (iScience, 2024)
Positions count from the first letter of the chain named. Names may count otherwise.

T1: MCU amino-terminal domain (MCU-NTD), MCU 72-189 (human, UniProt Q8NE86-1 72-189)
T1 construct: mitochondrial calcium uniporter (MCU), Homo sapiens, GenBank NP_612366.1, N-terminal domain, residues 72-189; theoretical monomer mass printed as 13.8637 kDa
T1 sequence (looked up): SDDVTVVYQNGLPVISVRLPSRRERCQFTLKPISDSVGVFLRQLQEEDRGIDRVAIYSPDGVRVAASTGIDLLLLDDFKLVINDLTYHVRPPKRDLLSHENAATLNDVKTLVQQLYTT

T2: Fluorescein-MCU-NTD (MCU 72-189 labelled with fluorescein-MTS at Cys97) (human, UniProt Q8NE86-1 72-189, fluorescein (fluorescein-methane thiosulfonate) on Cys97)
T2 construct: mitochondrial calcium uniporter (MCU), Homo sapiens, GenBank NP_612366.1, N-terminal domain, residues 72-189; also called MCU-NTD-fluorescein; source: labelled with fluorescein-MTS
T2 sequence (looked up): T1 sequence (looked up)

T3: MCU-NTD-D147R, MCU 72-189 D147R (human, UniProt Q8NE86-1 72-189, D147R)
T3 construct: mitochondrial calcium uniporter (MCU), Homo sapiens, GenBank NP_612366.1, N-terminal domain, residues 72-189, with D147R
T3 sequence (looked up): T1 sequence (looked up) with D76R

T4: MCU amino-terminal domain (MCU-NTD), MCU residues 72-189 (human, UniProt Q8NE86-1 72-189)
T4 construct: mitochondrial calcium uniporter (MCU), Homo sapiens, GenBank NP_612366.1, residues 72-189 (amino-terminal domain); theoretical monomer mass 13.8637 kDa is printed; also called MCU_(72-189); 15N-MCU-NTD; source: 15N-labelled in M9 minimal medium for NMR
T4 sequence (looked up): T1 sequence (looked up)

B1: MCUb amino-terminal domain (MCUb-NTD), MCUb 58-159 (domain or fragment, human, UniProt Q9NWR8 58-159, looked up)
chain: DEITVIYRHGLPLVTLTLPSRKERCQFVVKPMLSTVGSFLQDLQNEDKGIKTAAIFTADGNMISASTLMDILLMNDFKLVINKIAYDVQCPKREKPSNEHTA
notes: MCU dominant negative beta subunit (MCUb), Homo sapiens, GenBank NP_060388.2, N-terminal domain, residues 58-159; Theoretical monomer mass printed as 12.0098 kDa; a few vector residues probably remain after thrombin cleavage (pET-28a, NheI/XhoI); source: E. coli BL21(DE3) codon plus, purified (Ni-NTA, thrombin, SEC); not shown: 6xHis, N-terminal, cleaved
B2: Red-(NHS)-MCUb-NTD (MCUb 58-159 labelled with Red-NHS on primary amines) (domain or fragment, human, UniProt Q9NWR8 58-159, looked up)
chain: B1 chain
modifications: Red-NHS dye covalently linked to primary amines
notes: MCU dominant negative beta subunit (MCUb), Homo sapiens, GenBank NP_060388.2, N-terminal domain, residues 58-159; also called Red-(NHS)-labeled MCUb-NTD; source: E. coli BL21(DE3) codon plus, purified (Ni-NTA, thrombin, SEC); labelled with the RED-NHS labeling kit (NanoTemper); not shown: 6xHis, N-terminal, cleaved
B3: Fluorescein-MCUb-NTD (MCUb 58-159 labelled with fluorescein-MTS at Cys82 and Cys147) (domain or fragment, human, UniProt Q9NWR8 58-159, looked up)
chain: B1 chain
modifications: fluorescein (fluorescein-methane thiosulfonate) on Cys82 and Cys147
notes: MCU dominant negative beta subunit (MCUb), Homo sapiens, GenBank NP_060388.2, N-terminal domain, residues 58-159; also called MCUb-NTD-fluorescein; source: E. coli BL21(DE3) codon plus, purified (Ni-NTA, thrombin, SEC); labelled with fluorescein-MTS; not shown: 6xHis, N-terminal, cleaved
B4: MCU-NTD-D147R (MCU residues 72-189 with D147R) (domain or fragment, human, UniProt Q8NE86-1 72-189, looked up)
chain: T1 sequence (looked up) with D76R
notes: mitochondrial calcium uniporter (MCU), Homo sapiens, GenBank NP_612366.1, residues 72-189 (amino-terminal domain) with D147R in the MCU regulating acidic patch; also called D147R MCU_(72-189)
B5: Red-(NHS)-labeled MCUb-NTD (MCUb residues 58-159) (domain or fragment, human, UniProt Q9NWR8 58-159, looked up)
chain: B1 chain
modifications: Red-NHS dye covalently linked to primary amines
notes: MCU dominant negative beta subunit (MCUb), Homo sapiens, GenBank NP_060388.2, residues 58-159 (amino-terminal domain); Same chain as m1, with the label; source: E. coli BL21(DE3) codon plus, purified (Ni-NTA, thrombin, SEC), then labelled with the RED-NHS labeling kit (NanoTemper)
B6: MCUb-NTD-fluorescein (MCUb residues 58-159 labelled with fluorescein at Cys82 and Cys147) (domain or fragment, human, UniProt Q9NWR8 58-159, looked up)
chain: B1 chain
modifications: fluorescein (fluorescein-methane thiosulfonate) on Cys82 and Cys147
notes: MCU dominant negative beta subunit (MCUb), Homo sapiens, GenBank NP_060388.2, residues 58-159 (amino-terminal domain); Same chain as m1, with the label; also called fluorescein-MCUb-NTD; MCUb_(58-159) labeled; source: E. coli BL21(DE3) codon plus, purified (Ni-NTA, thrombin, SEC), then labelled with fluorescein-MTS

Tests used:
[1] = molecular target: MCU amino-terminal domain (MCU-NTD), MCU 72-189 (human) (UniProt Q8NE86); experiment: SEC-MALS; 100 uL injected at 3.0 mg mL-1 (mixed sample: 3 mg mL-1 each mixed, final 1.5 mg mL-1 of each component); Superdex 200 Increase 10/300 GL; 20 mM Tris (pH 8.5), 150 mM NaCl, 1 mM DTT, 10 C; no divalent cations
[2] = molecular target: MCU amino-terminal domain (MCU-NTD), MCU 72-189 (human) (UniProt Q8NE86); experiment: SEC-MALS; 100 uL injected at 3.0 mg mL-1 (mixed sample: final 1.5 mg mL-1 of each component); Superdex 200 Increase 10/300 GL; 20 mM Tris (pH 8.5), 150 mM NaCl, 1 mM DTT, 10 C; with 5 mM CaCl2
[3] = molecular target: MCU amino-terminal domain (MCU-NTD), MCU 72-189 (human) (UniProt Q8NE86); experiment: SEC-MALS; 100 uL injected at 3.0 mg mL-1 (mixed sample: final 1.5 mg mL-1 of each component); Superdex 200 Increase 10/300 GL; 20 mM Tris (pH 8.5), 150 mM NaCl, 1 mM DTT, 10 C; with 5 mM MgCl2
[4] = molecular target: MCU amino-terminal domain (MCU-NTD), MCU residues 72-189 (human) (UniProt Q8NE86); experiment: cross-linking; 1 mM BS-3, 90 min, 20 mM HEPES (pH 8.4), 150 mM NaCl, 1 mM DTT, ambient temperature; proteins at 67.5 uM, mix with 67.5 uM or 33.8 uM of each; SDS-PAGE, Coomassie
[5] = molecular target: T1, MCU amino-terminal domain (MCU-NTD), …; experiment: SEC-MALS; 100 uL injected at 3.0 mg mL-1 (mixed sample: final 1.5 mg mL-1 of each component); Superdex 200 Increase 10/300 GL; 20 mM Tris (pH 8.5), 150 mM NaCl, 1 mM DTT, 10 C; with 5 mM MgCl2; settings: both partners purified
[6] = molecular target: T2, Fluorescein-MCU-NTD (MCU 72-189 …); experiment: other fluorescence titration; steady-state fluorescein fluorescence; ~0.1 uM fluorescein-MCU-NTD titrated with MCUb-NTD; 20 mM Tris (pH 8.5), 150 mM NaCl, 1 mM DTT, 0.0001% (v/v) NP-40, 5 mM CaCl2; 22.5 C; one-site model; settings: both partners purified
[7] = molecular target: T1, MCU amino-terminal domain (MCU-NTD), …; experiment: SEC-MALS; 100 uL injected at 3.0 mg mL-1 (mixed sample: 3 mg mL-1 each mixed, final 1.5 mg mL-1 of each component); Superdex 200 Increase 10/300 GL; 20 mM Tris (pH 8.5), 150 mM NaCl, 1 mM DTT, 10 C; no divalent cations; settings: both partners purified
[8] = molecular target: MCUb amino-terminal domain (MCUb-NTD), MCUb 58-159 (human) (UniProt Q9NWR8); experiment: SEC-MALS; 100 uL injected at 2.0 mg mL-1; Superdex 200 Increase 10/300 GL; 20 mM Tris (pH 8.5), 150 mM NaCl, 1 mM DTT, 10 C; no divalent cations
[9] = molecular target: T1, MCU amino-terminal domain (MCU-NTD), …; experiment: SEC-MALS; 100 uL injected at 3.0 mg mL-1 (mixed sample: final 1.5 mg mL-1 of each component); Superdex 200 Increase 10/300 GL; 20 mM Tris (pH 8.5), 150 mM NaCl, 1 mM DTT, 10 C; with 5 mM CaCl2; settings: both partners purified
[10] = molecular target: MCUb amino-terminal domain (MCUb-NTD), MCUb 58-159 (human) (UniProt Q9NWR8); experiment: SEC-MALS; 100 uL injected at 4.0 mg mL-1; Superdex 200 Increase 10/300 GL; 20 mM Tris (pH 8.5), 150 mM NaCl, 1 mM DTT, 10 C; no divalent cations
[11] = molecular target: MCUb amino-terminal domain (MCUb-NTD), MCUb 58-159 (human) (UniProt Q9NWR8); experiment: SEC-MALS; 100 uL injected at 3.0 mg mL-1 (mixed sample: 3 mg mL-1 each mixed, final 1.5 mg mL-1 of each component); Superdex 200 Increase 10/300 GL; 20 mM Tris (pH 8.5), 150 mM NaCl, 1 mM DTT, 10 C; no divalent cations
[12] = molecular target: T2, Fluorescein-MCU-NTD (MCU 72-189 …); experiment: other fluorescence titration; steady-state fluorescein fluorescence; ~0.1 uM fluorescein-MCU-NTD titrated with MCUb-NTD; 20 mM Tris (pH 8.5), 150 mM NaCl, 1 mM DTT, 0.0001% (v/v) NP-40, 5 mM MgCl2; 22.5 C; one-site model; settings: both partners purified
[13] = molecular target: MCUb amino-terminal domain (MCUb-NTD), MCUb 58-159 (human) (UniProt Q9NWR8); experiment: SEC-MALS; 100 uL injected at 3.0 mg mL-1 (mixed sample: final 1.5 mg mL-1 of each component); Superdex 200 Increase 10/300 GL; 20 mM Tris (pH 8.5), 150 mM NaCl, 1 mM DTT, 10 C; with 5 mM CaCl2
[14] = molecular target: MCUb amino-terminal domain (MCUb-NTD), MCUb 58-159 (human) (UniProt Q9NWR8); experiment: SEC-MALS; 100 uL injected at 3.0 mg mL-1 (mixed sample: final 1.5 mg mL-1 of each component); Superdex 200 Increase 10/300 GL; 20 mM Tris (pH 8.5), 150 mM NaCl, 1 mM DTT, 10 C; with 5 mM MgCl2
[15] = molecular target: T3, MCU-NTD-D147R, MCU 72-189 D147R; experiment: MST; ~0.5 uM Red-(NHS)-MCUb-NTD titrated with unlabelled MCU-NTD variant; 20 mM Tris (pH 8.5), 150 mM NaCl, 1 mM DTT, 0.05% (v/v) NP-40; 22 C; one-site model; settings: both partners purified
[16] = molecular target: T3, MCU-NTD-D147R, MCU 72-189 D147R; experiment: other fluorescence titration; steady-state fluorescein fluorescence; ~0.1 uM fluorescein-MCUb-NTD titrated with unlabelled MCU-NTD variant; 20 mM Tris (pH 8.5), 150 mM NaCl, 1 mM DTT, 0.0001% (v/v) NP-40; 22.5 C; one-site model; settings: both partners purified
[17] = molecular target: B6; experiment: other fluorescence titration; steady-state fluorescein fluorescence; 0.1 uM MCUb-NTD-fluorescein titrated with MCU-NTD or MCU-NTD-D147R; 20 mM Tris (pH 8.5), 150 mM NaCl, 1 mM DTT, 0.0001% (v/v) NP-40, 22.5°C; one-site model; settings: both partners purified
[18] = molecular target: B5; experiment: MST; Red-NHS-labelled MCUb-NTD, increasing MCU-NTD or MCU-NTD-D147R; 20 mM Tris (pH 8.5), 150 mM NaCl, 1 mM DTT, 0.05% (v/v) NP-40, 22°C; one-site model; settings: both partners purified
[19] = molecular target: T4, MCU amino-terminal domain (MCU-NTD), …; experiment: as above; settings: both partners purified
[20] = molecular target: T4, MCU amino-terminal domain (MCU-NTD), …; experiment: other fluorescence titration; steady-state fluorescein fluorescence; 0.1 uM MCUb-NTD-fluorescein titrated with MCU-NTD or MCU-NTD-D147R; 20 mM Tris (pH 8.5), 150 mM NaCl, 1 mM DTT, 0.0001% (v/v) NP-40, 22.5°C; one-site model; settings: both partners purified

MCU amino-terminal domain (MCU-NTD), MCU 72-189 (from UniProt Q8NE86-1 72-189) (domain or fragment)
stoichiometry N [1]: 0.98 | stoichiometry N [2]: 0.96 | stoichiometry N [3]: 1.05

MCU amino-terminal domain (MCU-NTD), MCU residues 72-189 (from UniProt Q8NE86-1 72-189) (domain or fragment)
stoichiometry N [4]: 2

B1
stoichiometry N [5]: 1.61 | Kd [6]: 90 nM | stoichiometry N [7]: 1.68 | stoichiometry N [8]: 0.95 | stoichiometry N [9]: 1.72 | stoichiometry N [10]: 1.02 | stoichiometry N [11]: 0.97 | Kd [12]: 160 nM | stoichiometry N [13]: 0.92 | stoichiometry N [14]: 0.92

B2
Kd [15]: 11300 nM

B3
Kd [16]: 250 nM

B4
fold change of KD against MCU-NTD [17]: ~2 fold | fold change of KD against MCU-NTD [18]: ~2 fold

B5
Kd [19]: 4650 nM

B6
Kd [20]: 133 nM
